This note sets out measurements from US20060242739A1, “Plant nucleotide-sugar pyrophosphatase/phosphodiesterase (nppase), method of obtaining same and use of same in the production of assay devices and in the production of transgenic plants” (Universidad Publica De Navarra, priority 2002, published 2006).

Series [1] has as its target T1, NPPase from barley leaves (Hordeum vulgare, UniProt Q687E1).
T1 sequence (Q687E1 19-368): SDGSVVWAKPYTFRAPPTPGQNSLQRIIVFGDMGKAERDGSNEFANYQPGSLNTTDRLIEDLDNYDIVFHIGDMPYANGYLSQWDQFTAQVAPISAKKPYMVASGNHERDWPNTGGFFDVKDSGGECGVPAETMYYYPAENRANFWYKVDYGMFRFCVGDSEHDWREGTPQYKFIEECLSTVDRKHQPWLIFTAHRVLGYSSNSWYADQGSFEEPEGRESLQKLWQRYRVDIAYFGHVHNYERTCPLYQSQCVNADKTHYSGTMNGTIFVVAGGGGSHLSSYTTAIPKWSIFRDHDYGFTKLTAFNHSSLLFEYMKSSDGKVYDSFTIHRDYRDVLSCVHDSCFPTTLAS
In words: Enzymatic test of soluble NPPase from barley leaves: kinetic parameters, substrate specificity, effectors. Conditions: qualitative.

The conditions of series [2]: slightly basic pH.

B1: Proteinase K: protease (Boehringer) (protein, UniProt P06873 106-384, looked up)
Proteinase K: AAQTNAPWGLARISSTSPGTSTYYYDESAGQGSCVYVIDTGIEASHPEFEGRAQMVKTYYYSSRDGNGHGTHCAGTVGSRTYGVAKKTQLFGVKVLDDNGSGQYSTIIAGMDFVASDKNNRNCPKGVVASLSLGGGYSSSVNSAAARLQSSGVMVAVAAGNNNADARNYSPASEPSVCTVGASDRYDRRSSFSNYGSVLDIFGPGTSILSTWIGGSTRSISGTSMATPHVAGLAAYLMTLGKTTAASACRYIADTANKGDLSNIPFGTVNLLAYNNYQA
B1: the “resistance of NPPase to ionic detergents and proteases” value in series [1] is listed as “resistant”.

B2: NPPase: plant nucleotide pyrophosphatase/phosphodiesterase, soluble 70-kDa isoform purified from barley leaves (protein)
chain: MVSRKRGGGGGVAMAVAMLLAAASASRPSSSLEGFQPLSKIAVHKATVDLHGSAFVSATPALLGDQGEDTEWVTVKYGWANPSADDWIAVFSPADFISGSCPNPSRYPDEPLLCTAPIKYQFANYSANYVYWGKGSIRFQLINQRYDFSFALFTGGLENPKLVAVSEAISFKNPKAPVYPRLAQGKSYDEMTVTWTSGYDISEAYPFVEWGMVVAGAAAPTRTAAGTLTFNRGSMCGDPDRTVGWRDPGFIHTAFLRDLWPNKEYYYKIGHELSDGSIVWGKQYTFRAPPFPGQNSLQRIIVFGDMGKAERDGSNEFANYQPGSLNTTDRLVEDLDNYDIVFHIGDLPYANGYISQWDQFTAQVAPITAKKPYMIASGNHERDWPNTGGFFDVKDSGGECGVPAETMYYYPAENRANFWYKVDYGMFRFCIADSEHDWREGTDQYKFIEQCLSTVDRKHQPWLIFAAHRVLGYSSNWWYADQQSFEEPEGRESLQRLWQRHRVDVAFFGHVHNYERTCPMYQSQCVSGERRRYSGTMNGTIFVVAGGGGSHLSDYTSAIPKWSVFRDRDFGFVKLTAFNHSSLLFEYKKSSDGKVYDSFTVERDYRDVLSCVHDSCLPTTLAS
As for B2, the pH sensitivity result in series [2] is on record as “sensitive”.
